Where two headings read alike, the source gives them in different places.
How the values were obtained:
[1] = target: T1, purified 6× His-tagged SARS-CoV-2 spike protein (ELISA coat, Example 12) (SARS-CoV-2, UniProt P0DTC2 14-1213)
[2] = target: T1, purified 6× His-tagged SARS-CoV-2 spike …; remark: listed apart in the source

B1: Anti-spike RBD Ab27 scFv (scFv)
scFv: ELQMTQSPSSLSASVGDRVTITCRASQSISSYLNWYQQKPGKAPKLLIYAASSLQSGVPSRFSGSGSGTDFTLTISSLQPEDFATYYCQQANSFPFTFGPGTKVDIKGGSSRSSQVQLVQSGAEVKKPGASVKVSCKASGYTFTSYGISWVRQAPGQGLEWMGWVNPNGGHTGYAQKFQGRVTMTRHTATNTVYMELSSLTSDDTAVYYCARGKGYYYGMDVWGQGTTVLVSSASTKGPSV
EC50 [1]: 8.85 nM

B2: Anti-spike RBD Ab39 scFv (scFv)
scFv: ELVLTQSPGTLSLSPGERATLSCRASQSLYNNFLAWYQQKPGQAPRLLIYAASNRATGIPDRFSGSGSGTDFTLTISRLEPEDFAVYYCQQYGSSPGYTFGQGTKLEIKGGSSRSSQVQLVQSGAEVKKPGSSVKVSCKASGGTFSSYAISWVRQAPGQGLEWMGGIIPIFGTANYAQKFQGRVTITADESTSTAYMELSSLRSEDTAVYYCARTLRQYYYYGMDVWGQGTTVTVSSGSASAPTL
EC50 [1]: 4.93 nM

B3: Anti-spike RBD Ab37 scFv (scFv)
scFv: ELMLTQPPSVSVAPGQTARITCGGNNIGSKSVHWYQQKPGQAPVLVVYDDSDRPSGIPERFSGSNSGNTATLTISRVEAGDEADYYCQVWDNTLLFGGGTELTVLGGGSSRSSGVQLVESGGGLVQPGGSLRLSCSASGFTFSSYAMHWVRQAPGKGLEYVSGISSNGGGTHYADSVKGRFSISRDNSKNTLYLQMSSLRAEDTAVYYCVKDDSGSYFSLFDHWGQGTLVTVSSASTKGPSV
EC50 [2]: 5.18 nM
EC50 [1]: 5.28 nM

Source: patent publication US20230303654A1 (CITY OF HOPE, published 2023)
